Data taken from publication PMC12268258.
Read-outs that look alike come from different tables or passages of the source.

What was measured:
Experiment in all cases: BLI
HB125scFv-2 T32H [1] = biological target: HB125scFv-2 T32H
HB125scFv-2 D33H [2] = biological target: HB125scFv-2 D33H
HB125scFv-2 Y242H [3] = biological target: HB125scFv-2 Y242H
HB125scFv-2 N54H [4] = biological target: HB125scFv-2 N54H
HB125scFv-2 T32H [5] = biological target: HB125scFv-2 T32H; remark: listed apart in the source
HB125scFv-2 E56H [6] = biological target: HB125scFv-2 E56H
HB125scFv-2 D33H/E56H [7] = biological target: HB125scFv-2 D33H/E56H
HB125scFv-2 D33H [8] = biological target: HB125scFv-2 D33H; remark: listed apart in the source
HB125scFv-2 Y242H [9] = biological target: HB125scFv-2 Y242H; remark: listed apart in the source
HB125scFv-2 N54H [10] = biological target: HB125scFv-2 N54H; remark: listed apart in the source
HB125scFv-2 T32H [11] = biological target: HB125scFv-2 T32H; remark: listed apart in the source
HB125scFv-2 E56H [12] = biological target: HB125scFv-2 E56H; remark: listed apart in the source
HB125scFv-2 D33H/E56H [13] = biological target: HB125scFv-2 D33H/E56H; remark: listed apart in the source

percent change of wavelength shift, association 0.5 μM → 1 μM (HB125scFv-2 T32H [1]): 31%
percent change of wavelength shift, association 1 μM → 0.5 μM (HB125scFv-2 T32H [1]): 15%
percent change of wavelength shift, association 1 μM → 2 μM (HB125scFv-2 T32H [1]): 39%
percent change of wavelength shift, association 2 μM → 1 μM (HB125scFv-2 T32H [1]): 20%
percent change of wavelength shift, average association (HB125scFv-2 T32H [1]): 26%
percent change of wavelength shift, average dissociation (HB125scFv-2 T32H [1]): -17%
percent change of wavelength shift, dissociation 0.5 μM → 0 μM (first) (HB125scFv-2 T32H [1]): -18%
percent change of wavelength shift, dissociation 0.5 μM → 0 μM (second) (HB125scFv-2 T32H [1]): -11%
percent change of wavelength shift, dissociation 1 μM → 0 μM (first) (HB125scFv-2 T32H [1]): -15%
percent change of wavelength shift, dissociation 1 μM → 0 μM (second) (HB125scFv-2 T32H [1]): -18%
percent change of wavelength shift, dissociation 2 μM → 0 μM (HB125scFv-2 T32H [1]): -21%
Kd (HB125scFv-2 D33H [2]): 0.0517 µM
koff (HB125scFv-2 D33H [2]): 0.00154 s⁻¹
kon (HB125scFv-2 D33H [2]): 27800 M⁻¹ s⁻¹
Kd (HB125scFv-2 Y242H [3]): 1.48 µM
koff (HB125scFv-2 Y242H [3]): 0.012 s⁻¹
kon (HB125scFv-2 Y242H [3]): 8040 M⁻¹ s⁻¹
Kd (HB125scFv-2 N54H [4]): 0.206 µM
koff (HB125scFv-2 N54H [4]): 0.00286 s⁻¹
kon (HB125scFv-2 N54H [4]): 15700 M⁻¹ s⁻¹
Kd (HB125scFv-2 T32H [5]): 0.145 µM
koff (HB125scFv-2 T32H [5]): 0.00351 s⁻¹
kon (HB125scFv-2 T32H [5]): 42900 M⁻¹ s⁻¹
percent change of wavelength shift, association 0.5 μM → 1 μM (HB125scFv-2 T32H [5]): 57%
percent change of wavelength shift, association 1 μM → 0.5 μM (HB125scFv-2 T32H [5]): 23%
percent change of wavelength shift, association 1 μM → 2 μM (HB125scFv-2 T32H [5]): 49%
percent change of wavelength shift, association 2 μM → 1 μM (HB125scFv-2 T32H [5]): 21%
percent change of wavelength shift, average association (HB125scFv-2 T32H [5]): 37%
percent change of wavelength shift, average dissociation (HB125scFv-2 T32H [5]): -21%
percent change of wavelength shift, dissociation 0.5 μM → 0 μM (first) (HB125scFv-2 T32H [5]): -22%
percent change of wavelength shift, dissociation 0.5 μM → 0 μM (second) (HB125scFv-2 T32H [5]): -17%
percent change of wavelength shift, dissociation 1 μM → 0 μM (first) (HB125scFv-2 T32H [5]): -23%
percent change of wavelength shift, dissociation 1 μM → 0 μM (second) (HB125scFv-2 T32H [5]): -22%
percent change of wavelength shift, dissociation 2 μM → 0 μM (HB125scFv-2 T32H [5]): -20%
Kd (HB125scFv-2 E56H [6]): 0.548 µM
koff (HB125scFv-2 E56H [6]): 0.00577 s⁻¹
kon (HB125scFv-2 E56H [6]): 12700 M⁻¹ s⁻¹
Kd (HB125scFv-2 D33H/E56H [7]): 0.426 µM
koff (HB125scFv-2 D33H/E56H [7]): 0.0073 s⁻¹
kon (HB125scFv-2 D33H/E56H [7]): 19100 M⁻¹ s⁻¹
Kd (HB125scFv-2 D33H [8]): 0.036 µM
koff (HB125scFv-2 D33H [8]): 0.00176 s⁻¹
kon (HB125scFv-2 D33H [8]): 60500 M⁻¹ s⁻¹
Kd (HB125scFv-2 Y242H [9]): 0.478 µM
koff (HB125scFv-2 Y242H [9]): 0.00854 s⁻¹
kon (HB125scFv-2 Y242H [9]): 18800 M⁻¹ s⁻¹
Kd (HB125scFv-2 N54H [10]): 0.165 µM
koff (HB125scFv-2 N54H [10]): 0.00341 s⁻¹
kon (HB125scFv-2 N54H [10]): 26000 M⁻¹ s⁻¹
Kd (HB125scFv-2 T32H [11]): 0.0174 µM
koff (HB125scFv-2 T32H [11]): 0.00166 s⁻¹
kon (HB125scFv-2 T32H [11]): 89700 M⁻¹ s⁻¹
Kd (HB125scFv-2 E56H [12]): 0.16 µM
koff (HB125scFv-2 E56H [12]): 0.0058 s⁻¹
kon (HB125scFv-2 E56H [12]): 43400 M⁻¹ s⁻¹
Kd (HB125scFv-2 D33H/E56H [13]): 0.25 µM
koff (HB125scFv-2 D33H/E56H [13]): 0.00557 s⁻¹
kon (HB125scFv-2 D33H/E56H [13]): 23700 M⁻¹ s⁻¹
Substance: human insulin (from UniProt P01308 90-110; P01308 25-54) (natural protein)
